According to patent publication US20120121633A1 (published 2012):

Target: T1, ovalbumin (UniProt P01012 2-386)
T1 construct: also called control ovalbumin
T1 sequence: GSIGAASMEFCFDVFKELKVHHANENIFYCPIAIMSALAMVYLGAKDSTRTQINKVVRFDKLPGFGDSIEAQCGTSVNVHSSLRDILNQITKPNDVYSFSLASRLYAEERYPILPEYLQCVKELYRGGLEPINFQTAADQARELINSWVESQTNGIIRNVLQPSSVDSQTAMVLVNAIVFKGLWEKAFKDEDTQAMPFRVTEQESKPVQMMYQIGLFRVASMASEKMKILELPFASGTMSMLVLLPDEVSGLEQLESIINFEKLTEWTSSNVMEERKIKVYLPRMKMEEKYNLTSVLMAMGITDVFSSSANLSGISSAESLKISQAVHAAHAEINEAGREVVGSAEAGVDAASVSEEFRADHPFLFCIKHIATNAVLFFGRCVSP
Assay: competition ELISA: no inhibition of MAb 2G9 binding to immobilized BSA-E-416-433

B1: IgM clone 2G9 (antibody, V domains shown)
VH: QVQLKQSGPGLVQPSQSLSITCTVSGFSLTSYGVHWVRQSPGKGLEWLGVIWSGGSTDYNAAFISRLSISKDNSKSQVFFKMNSLQANDTAIYYCARNKDYGSSYDYYAMDYWGQGTSVTVSS
VL: DIQMTQTTSSLSASLGDRVTISCRASQDISNYLNWYQQKPDGTVKLLIYYTSRLHSGVPSRFSGSGSGTDYSLTISNLEQEDIATYFCQQGNTLPTFGGGTKLEIKR
notes: also called MAb 2G9; MAb IgM 2G9
binding result: no binding
